Source: US20210032365A1 (Chugai, published 2021)

T1: human C1s (human, UniProt P09871 16-688)
T1 construct: also called hC1s; serum-derived human C1s (CompTech)
T1 sequence: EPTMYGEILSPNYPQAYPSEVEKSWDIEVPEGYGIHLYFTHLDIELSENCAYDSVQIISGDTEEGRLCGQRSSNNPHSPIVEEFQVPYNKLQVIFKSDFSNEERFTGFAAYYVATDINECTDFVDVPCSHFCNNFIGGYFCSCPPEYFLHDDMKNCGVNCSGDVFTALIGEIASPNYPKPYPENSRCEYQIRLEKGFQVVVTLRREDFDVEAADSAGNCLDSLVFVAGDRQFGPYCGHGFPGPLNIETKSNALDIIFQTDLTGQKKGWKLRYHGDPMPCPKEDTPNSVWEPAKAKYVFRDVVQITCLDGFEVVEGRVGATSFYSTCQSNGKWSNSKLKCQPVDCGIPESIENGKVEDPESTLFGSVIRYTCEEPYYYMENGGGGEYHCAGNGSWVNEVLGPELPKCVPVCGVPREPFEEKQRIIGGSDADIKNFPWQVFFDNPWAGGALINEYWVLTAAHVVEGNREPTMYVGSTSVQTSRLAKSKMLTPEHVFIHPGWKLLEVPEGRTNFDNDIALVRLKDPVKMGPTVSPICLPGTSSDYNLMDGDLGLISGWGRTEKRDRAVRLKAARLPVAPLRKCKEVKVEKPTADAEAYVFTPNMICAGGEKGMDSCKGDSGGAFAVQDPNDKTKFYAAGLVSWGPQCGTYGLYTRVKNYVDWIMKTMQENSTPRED

T2: human C1s (human, UniProt P09871 16-688)
T2 construct: Analyte in the Biacore assays; also called hC1s; serum-derived human C1s (CompTech)
T2 sequence: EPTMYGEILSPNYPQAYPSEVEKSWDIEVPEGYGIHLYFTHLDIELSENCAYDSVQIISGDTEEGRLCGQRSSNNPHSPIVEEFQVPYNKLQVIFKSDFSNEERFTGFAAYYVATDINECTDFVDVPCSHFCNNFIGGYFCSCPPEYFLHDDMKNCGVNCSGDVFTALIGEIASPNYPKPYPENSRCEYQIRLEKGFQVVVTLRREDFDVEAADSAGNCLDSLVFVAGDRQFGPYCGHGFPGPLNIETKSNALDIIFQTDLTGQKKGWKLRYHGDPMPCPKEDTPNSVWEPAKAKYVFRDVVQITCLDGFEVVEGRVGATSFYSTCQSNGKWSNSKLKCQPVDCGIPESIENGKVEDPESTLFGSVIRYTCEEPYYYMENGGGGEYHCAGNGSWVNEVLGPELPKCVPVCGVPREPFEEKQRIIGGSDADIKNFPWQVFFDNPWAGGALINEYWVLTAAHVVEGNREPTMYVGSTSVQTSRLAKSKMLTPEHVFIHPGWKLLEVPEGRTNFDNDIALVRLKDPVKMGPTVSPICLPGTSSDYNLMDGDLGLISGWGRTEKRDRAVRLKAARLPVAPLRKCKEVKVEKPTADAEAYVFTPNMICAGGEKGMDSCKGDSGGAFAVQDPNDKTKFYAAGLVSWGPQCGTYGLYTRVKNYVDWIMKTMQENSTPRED


Experiments:
human C1s [1] = target: T1, human C1s; experiment: SPR; KD pH 5.8 3 uM Ca / KD pH 7.4 1.2 mM Ca
Outline: (§1)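 Protein A/G amine-coupled to CM4 chip; each variant captured to ~200 RU; 50 nM C1s injected, dissociation followed; surface regenerated with 10 mM glycine-HCl pH 1.5; all at 37 °C in 20 mM ACES buffers at pH 7.4 or 5.8 with 1.2 mM or 3 µM CaCl2.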

human C1s [2] = target: T1, human C1s; experiment: SPR, Ab captured; pH 5.8, 3 uM Ca
Outline: as §1

human C1s [3] = target: T1, human C1s; experiment: SPR; KD pH 5.8 1.2 mM Ca / KD pH 7.4 1.2 mM Ca
Procedure: (§2) All variants were transiently expressed and purified by the method described above. The binding affinity of each histidine-substituted variant at pH 7.4 and pH 5.8 was determined at 37 degrees C. using Biacore T200 instrument (GE Healthcare). Recombinant Protein A/G (Pierce) was immobilized onto all flow cells of a CM4 sensor chip using an amine coupling kit (GE Healthcare). Antibodies and analytes were prepared in 7(+) buffer (20 mM ACES, 150 mM NaCl, 1.2 mM CaCl2, 0.05% Tween 20, 0.005% NaN3, pH 7.4), 5(+) buffer (20 mM ACES, 150 mM NaCl, 1.2 mM CaCl2, 0.05% Tween 20, 0.005% NaN3, pH 5.8), or 5(−) buffer (20 mM ACES, 150 mM NaCl, 3 micro M CaCl2, 0.05% Tween 20, 0.005% NaN3, pH 5.8). Each antibody was captured onto the sensor surface by protein A/G. Antibody capture levels were aimed at 200 resonance unit (RU). Serum-derived human C1s (CompTech) or recombinant C1s prepared in EXAMPLE 1 was injected at 50 nM, followed by dissociation. The sensor surface was regenerated in each cycle with 10 mM Glycine-HCl, pH 1.5. […] The ratio of KD 5.8+ to KD 7.4+(“KD 5+/7+”) and that of KD 5.8− to KD 7.4+(“KD 5−/7+”) were calculated. When the KD 5+/7+ or KD 5−/7+ of a variant is larger than that of the parent antibody IPN009VH2-SG4GK/IPN009VK3-SK1, that variant is considered to be “pH”- or “pH and Ca”-dependent, respectively. When binding response in 5(+) buffer and/or in 5(−) buffer of a variant is much lower than that of IPN09VH2/IPN009VK3, that variant is also considered as “pH”- and/or “pH and Ca”-dependent. Therefore, such mutations are effective to generate “pH”- and/or “pH and Ca”-dependent antibody. To further enhance “pH” and/or “pH and Ca” dependency, a combination of histidine mutations was conducted. Antibodies with combinations of histidine mutations were evaluated using Biacore by the method described above.

human C1s [4] = target: T1, human C1s; experiment: SPR, Ab captured; pH 7.4, 1.2 mM Ca
Procedure: as §2

human C1s [5] = target: T1, human C1s; experiment: SPR, Ab captured; pH 5.8, 3 uM Ca; remark: listed apart in the source
Procedure: as §2

human C1s [6] = target: T1, human C1s; experiment: SPR, Ab captured; pH 5.8, 1.2 mM Ca
Procedure: as §2

human C1s [7] = target: T1, human C1s; experiment: SPR; KD pH 5.8 3 uM Ca / KD pH 7.4 1.2 mM Ca; remark: listed apart in the source
Procedure: as §2

human C1s [8] = target: T1, human C1s; experiment: SPR, Ab captured; pH 5.8, 1.2 mM Ca; remark: listed apart in the source
Outline: as §1

human C1s [9] = target: T1, human C1s; experiment: SPR; KD pH 5.8 1.2 mM Ca / KD pH 7.4 1.2 mM Ca; remark: listed apart in the source
Outline: as §1

human C1s [10] = target: T1, human C1s; experiment: SPR, Ab captured; pH 7.4, 1.2 mM Ca; remark: listed apart in the source
Outline: as §1

human C1s [11] = target: T1, human C1s; experiment: SPR, Ab captured; pH 7.4, 1.2 mM Ca; remark: listed apart in the source
Outline: (§3)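 Antibody captured on protein A/G (~200 RU) on Biacore T200 at 37C; serum-derived or recombinant human C1s injected at 50 nM, then dissociation. KD measured at pH 7.4 with 1.2 mM Ca and at pH 5.8 with 1.2 mM or 3 uM Ca; KD ratios pH 5.8/pH 7.4 calculated.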

human C1s [12] = target: T2, human C1s; experiment: SPR (Biacore T200, 37C), Ab captured on protein A/G; pH 5.8, 1.2 mM Ca
Outline: as §3

human C1s [13] = target: T2, human C1s; experiment: SPR (Biacore T200, 37C), Ab captured on protein A/G; pH 5.8, 3 uM Ca
Procedure: as §2

human C1s [14] = target: T2, human C1s; experiment: SPR; KD at pH 5.8 (1.2 mM Ca) over KD at pH 7.4 (1.2 mM Ca)
Outline: as §3

human C1s [15] = target: T2, human C1s; experiment: as above; remark: listed apart in the source
Procedure: as §2

human C1s [16] = target: T2, human C1s; experiment: SPR (Biacore T200, 37C), Ab captured on protein A/G; pH 5.8, 1.2 mM Ca; remark: listed apart in the source
Procedure: as §2

human C1s [17] = target: T2, human C1s; experiment: SPR (Biacore T200, 37C), Ab captured on protein A/G; pH 5.8, 3 uM Ca; remark: listed apart in the source
Outline: as §3

human C1s [18] = target: T2, human C1s; experiment: SPR; KD at pH 5.8 (3 uM Ca) over KD at pH 7.4 (1.2 mM Ca)
Outline: as §3

human C1s [19] = target: T2, human C1s; experiment: SPR (Biacore T200, 37C), Ab captured on protein A/G; pH 7.4, 1.2 mM Ca
Procedure: as §2

human C1s [20] = target: T2, human C1s; experiment: SPR; KD at pH 5.8 (3 uM Ca) over KD at pH 7.4 (1.2 mM Ca); remark: listed apart in the source
Procedure: as §2

Row | Binder | koff (human C1s [13]) [s⁻¹] | kon (human C1s [13]) [M⁻¹ s⁻¹] | KD 5(+)/7(+) (human C1s [15]) | koff (human C1s [16]) [s⁻¹] | kon (human C1s [16]) [M⁻¹ s⁻¹] | koff (human C1s [19]) [s⁻¹] | kon (human C1s [19]) [M⁻¹ s⁻¹] | KD 5(-)/7(+) (human C1s [20]) | other results
1 | C1_IPN009VH2-SG4GK/IPN009VK3-SK1 (antibody, human IgG4 S228P, kappa, parent antibody; variable regions as described in WO2016164358; also called IPN009VH2/IPN009VK3; IPN09VH2/IPN09VK3) heavy: not shown light: QIVLTQSPATLSLSPGERATLSCTASSSVSSSYLHWYQQKPGKAPKLWIYSTSNLASGVPSRFSGSGSGTDYTLTISSLQPEDFATYYCHQYYRLPPITFGQGTKLEIKRTVAAPSVFIFPPSDEQLKSGTASVVCLLNNFYPREAKVQWKVDNALQSGNSQESVTEQDSKDSTYSLSSTLTLSKADYEKHKVYACEVTHQGLSSPVTKSFNRGEC | – | – | – | – | – | – | – | – | KD 5(-)/7(+) (human C1s [1]): 4.1; koff (human C1s [2]): 0.00204 s⁻¹; kon (human C1s [2]): 606000 M⁻¹ s⁻¹; KD 5(+)/7(+) (human C1s [3]): 0.2; koff (human C1s [4]): 0.000298 s⁻¹; kon (human C1s [4]): 362000 M⁻¹ s⁻¹; koff (human C1s [5]): 0.00204 s⁻¹; kon (human C1s [5]): 606000 M⁻¹ s⁻¹; koff (human C1s [6]): 0.000108 s⁻¹; kon (human C1s [6]): 662000 M⁻¹ s⁻¹; KD 5(-)/7(+) (human C1s [7]): 4.1; koff (human C1s [8]): 0.000108 s⁻¹; kon (human C1s [8]): 662000 M⁻¹ s⁻¹; KD 5(+)/7(+) (human C1s [9]): 0.2; koff (human C1s [10]): 0.000298 s⁻¹; kon (human C1s [10]): 362000 M⁻¹ s⁻¹; koff (human C1s [11]): 0.000298 s⁻¹; kon (human C1s [11]): 362000 M⁻¹ s⁻¹
2 | C1_IPN009VH2-SG4GK/IPN009VK3-SK1 (antibody, human IgG4 S228P, kappa, Parent antibody; also called IPN009VH2/IPN009VK3; IPN09VH2/IPN09VK3) heavy: not shown light: QIVLTQSPATLSLSPGERATLSCTASSSVSSSYLHWYQQKPGKAPKLWIYSTSNLASGVPSRFSGSGSGTDYTLTISSLQPEDFATYYCHQYYRLPPITFGQGTKLEIKRTVAAPSVFIFPPSDEQLKSGTASVVCLLNNFYPREAKVQWKVDNALQSGNSQESVTEQDSKDSTYSLSSTLTLSKADYEKHKVYACEVTHQGLSSPVTKSFNRGEC | 0.00204 | 605000 | 0.2 | 0.000108 | 662000 | 0.000298 | 362000 | 4.09 | koff (human C1s [12]): 0.000108 s⁻¹; kon (human C1s [12]): 662000 M⁻¹ s⁻¹; KD 5(+)/7(+) (human C1s [14]): 0.2; koff (human C1s [17]): 0.00204 s⁻¹; kon (human C1s [17]): 606000 M⁻¹ s⁻¹; KD 5(-)/7(+) (human C1s [18]): 4.09

More lines, main results first:

Row | koff (human C1s [13]) [s⁻¹] | kon (human C1s [13]) [M⁻¹ s⁻¹] | KD 5(+)/7(+) (human C1s [15]) | koff (human C1s [16]) [s⁻¹] | kon (human C1s [16]) [M⁻¹ s⁻¹] | koff (human C1s [19]) [s⁻¹] | kon (human C1s [19]) [M⁻¹ s⁻¹] | KD 5(-)/7(+) (human C1s [20]) | Binder | other results
3 | 0.00401 | 504000 | 23.3 | 0.0143 | 732000 | 0.000548 | 654000 | 9.5 | C1_IPN92H0288-SG4GK/IPN93L0058-SK1 (antibody, human IgG4 S228P, kappa, also called IPN92H0288/IPN93L0058) heavy: not shown light: QIVLTQSPATLSLSPGERATLSCTASSEVSSSYLHWYQQKPGKAPKLWIYSTSNLASGVPSRFSGSGSGTDYTLTISSLQPEDFATYYCHQYYRLHPITFGQGTKLEIKRTVAAPSVFIFPPSDEQLKSGTASVVCLLNNFYPREAKVQWKVDNALQSGNSQESVTEQDSKDSTYSLSSTLTLSKADYEKHKVYACEVTHQGLSSPVTKSFNRGEC | –
4 | 0.00196 | 396000 | 10.1 | 0.0142 | 731000 | 0.000863 | 446000 | 2.56 | C1_IPN92H0307-SG4GK/IPN93L0058-SK1 (antibody, human IgG4 S228P, kappa, also called IPN92H0307/IPN93L0058) heavy: not shown light: QIVLTQSPATLSLSPGERATLSCTASSEVSSSYLHWYQQKPGKAPKLWIYSTSNLASGVPSRFSGSGSGTDYTLTISSLQPEDFATYYCHQYYRLHPITFGQGTKLEIKRTVAAPSVFIFPPSDEQLKSGTASVVCLLNNFYPREAKVQWKVDNALQSGNSQESVTEQDSKDSTYSLSSTLTLSKADYEKHKVYACEVTHQGLSSPVTKSFNRGEC | –
